Numbering of substitutions follows the chain as printed. Like-named read-outs stand apart in the source and are kept apart here.
T1: ALPL on HeLa cells (Homo sapiens, UniProt P05186)
T1 construct: knockdown endogenous levels of ALPL in HeLa cells; endogenous in cells; host or cells: HeLa
T1 sequence (P05186 18-501): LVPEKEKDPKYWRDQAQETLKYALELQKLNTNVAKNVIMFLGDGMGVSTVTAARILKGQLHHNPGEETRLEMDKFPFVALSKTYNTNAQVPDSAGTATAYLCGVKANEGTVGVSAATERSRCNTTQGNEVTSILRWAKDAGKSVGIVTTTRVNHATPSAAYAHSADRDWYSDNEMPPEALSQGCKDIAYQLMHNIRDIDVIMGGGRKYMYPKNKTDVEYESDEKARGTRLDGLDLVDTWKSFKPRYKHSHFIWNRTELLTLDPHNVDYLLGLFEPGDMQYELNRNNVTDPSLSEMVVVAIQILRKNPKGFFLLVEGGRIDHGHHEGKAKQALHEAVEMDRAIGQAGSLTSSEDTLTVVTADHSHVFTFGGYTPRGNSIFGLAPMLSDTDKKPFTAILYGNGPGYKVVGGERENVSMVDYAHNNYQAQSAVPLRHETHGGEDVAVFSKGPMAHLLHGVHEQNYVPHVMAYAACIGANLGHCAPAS

T2: human ALPL expressed on cells (alkaline phosphatase tissue-nonspecific isozyme, NM_000478.4) (human, UniProt P05186 18-501)
T2 sequence: T1 sequence (P05186 18-501)

T3: His-tagged ALPL (recombinant, soluble; SPR, BLI and ELISA of Examples 8 and 13) (UniProt P05186 18-502)
T3 construct: also called ALPL receptor; alkaline phosphatase tissue-nonspecific isozyme
T3 sequence: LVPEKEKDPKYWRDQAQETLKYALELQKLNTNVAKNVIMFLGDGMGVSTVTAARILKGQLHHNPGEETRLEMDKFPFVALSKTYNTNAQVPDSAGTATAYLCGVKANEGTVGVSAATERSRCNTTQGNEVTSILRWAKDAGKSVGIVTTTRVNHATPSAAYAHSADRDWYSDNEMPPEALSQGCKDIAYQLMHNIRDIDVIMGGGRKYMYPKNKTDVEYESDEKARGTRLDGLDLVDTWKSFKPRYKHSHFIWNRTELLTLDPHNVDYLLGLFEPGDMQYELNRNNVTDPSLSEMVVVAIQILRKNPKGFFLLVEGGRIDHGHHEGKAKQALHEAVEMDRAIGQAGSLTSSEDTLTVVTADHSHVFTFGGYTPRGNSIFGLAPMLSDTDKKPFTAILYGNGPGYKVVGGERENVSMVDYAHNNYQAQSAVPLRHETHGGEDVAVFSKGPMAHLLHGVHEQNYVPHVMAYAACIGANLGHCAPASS

T4: library of over 5,500 cDNAs overexpressed in human cells (ALPL) (Homo sapiens, UniProt P05186)
T4 construct: expressed in transfected cells
T4 sequence (P05186 18-501): T1 sequence (P05186 18-501)

B1: TTM-002 capsid variant (AAV particle comprising the TTM-002 AAV9 capsid variant) (other)
chain 1: MAADGYLPDWLEDNLSEGIREWWALKPGAPQPKANQQHQDNARGLVLPGYKYLGPGNGLDKGEPVNAADAAALEHDKAYDQQLKAGDNPYLKYNHADAEFQERLKEDTSFGGNLGRAVFQAKKRLLEPLGLVEEAAKTAPGKKRPVEQSPQEPDSSAGIGKSGAQPAKKRLNFGQTGDTESVPDPQPIGEPPAAPSGVGSLTMASGGGAPVADNNEGADGVGSSSGNWHCDSQWLGDRVITTSTRTWALPTYNNHLYKQISNSTSGGSSNDNAYFGYSTPWGYFDFNRFHCHFSPRDWQRLINNNWGFRPKRLNFKLFNIQVKEVTDNNGVKTIANNLTSTVQVFTDSDYQLPYVLGSAHEGCLPPFPADVFMIPQYGYLTLNDGSQAVGRSSFYCLEYFPSQMLRTGNNFQFSYEFENVPFHSSYAHSQSLDRLMNPLIDQYLYYLSKTINGHDSPHKSGQNQQTLKFSVAGPSNMAVQGRNYIPGPSYRQQRVSTTVTQNNNSEFAWPGASSWALNGRNSLMNPGPAMASHKEGEDRFFPLSGSLIFGKQGTGRDNVDADKVMITNEEEIKTTNPVATESYGQVATNHQSAQAQAQTGWVQNQGILPGMVWQDRDVYLQGPIWAKIPHTDGNFHPSPLMGGFGMKHPPPQILIKNTPVPADPPTAFNKDKLNSFITQYSTGQVSVEIEWELQKENSKRWNPEIQYTSNYYKSNNVEFAVNTEGVYSEPRPIGTRYLTRNL
chain 2: TAPGKKRPVEQSPQEPDSSAGIGKSGAQPAKKRLNFGQTGDTESVPDPQPIGEPPAAPSGVGSLTMASGGGAPVADNNEGADGVGSSSGNWHCDSQWLGDRVITTSTRTWALPTYNNHLYKQISNSTSGGSSNDNAYFGYSTPWGYFDFNRFHCHFSPRDWQRLINNNWGFRPKRLNFKLFNIQVKEVTDNNGVKTIANNLTSTVQVFTDSDYQLPYVLGSAHEGCLPPFPADVFMIPQYGYLTLNDGSQAVGRSSFYCLEYFPSQMLRTGNNFQFSYEFENVPFHSSYAHSQSLDRLMNPLIDQYLYYLSKTINGHDSPHKSGQNQQTLKFSVAGPSNMAVQGRNYIPGPSYRQQRVSTTVTQNNNSEFAWPGASSWALNGRNSLMNPGPAMASHKEGEDRFFPLSGSLIFGKQGTGRDNVDADKVMITNEEEIKTTNPVATESYGQVATNHQSAQAQAQTGWVQNQGILPGMVWQDRDVYLQGPIWAKIPHTDGNFHPSPLMGGFGMKHPPPQILIKNTPVPADPPTAFNKDKLNSFITQYSTGQVSVEIEWELQKENSKRWNPEIQYTSNYYKSNNVEFAVNTEGVYSEPRPIGTRYLTRNL
chain 3: MASGGGAPVADNNEGADGVGSSSGNWHCDSQWLGDRVITTSTRTWALPTYNNHLYKQISNSTSGGSSNDNAYFGYSTPWGYFDFNRFHCHFSPRDWQRLINNNWGFRPKRLNFKLFNIQVKEVTDNNGVKTIANNLTSTVQVFTDSDYQLPYVLGSAHEGCLPPFPADVFMIPQYGYLTLNDGSQAVGRSSFYCLEYFPSQMLRTGNNFQFSYEFENVPFHSSYAHSQSLDRLMNPLIDQYLYYLSKTINGHDSPHKSGQNQQTLKFSVAGPSNMAVQGRNYIPGPSYRQQRVSTTVTQNNNSEFAWPGASSWALNGRNSLMNPGPAMASHKEGEDRFFPLSGSLIFGKQGTGRDNVDADKVMITNEEEIKTTNPVATESYGQVATNHQSAQAQAQTGWVQNQGILPGMVWQDRDVYLQGPIWAKIPHTDGNFHPSPLMGGFGMKHPPPQILIKNTPVPADPPTAFNKDKLNSFITQYSTGQVSVEIEWELQKENSKRWNPEIQYTSNYYKSNNVEFAVNTEGVYSEPRPIGTRYLTRNL
B2: TTM-002: AAV9 capsid variant comprising HDSPHK (SEQ ID NO: 2) in loop IV (protein)
chain 1: B1 chain 1
chain 2: GHDSPHKSGQNQQT
B3: TTM-001: AAV9 capsid variant comprising SPHSKA (SEQ ID NO: 941) in loop IV (protein)
chain 1: B1 chain 1 with H454S, D455G, K459S, S460K, G461A
chain 2: GSGSPHSKAQNQQT

What was measured:
ALPL on HeLa cells = target: T1, ALPL on HeLa cells; assay: Transduction of HeLa cells after blocking with an anti-ALPL antibody; type: cell-based; settings: for Transduction in Hela cells as measured by luciferase assay (RLU): 1E4 VG/cell
Experimental: Following incubation, the cells were transduced with 1E4 VG/cell of AAV particles comprising the TTM-002 capsid variant or an AAV9 control expressing a GFP-luciferase payload. After a 4 hour incubation period the AAV and media were removed and replaced with fresh media and luciferase activity was measured (RLU) 24 hours post transduction.

[1] = target: T2, human ALPL expressed on cells (alkaline …); assay: cell-based or functional assay
[2] = target: T3, His-tagged ALPL (recombinant, soluble; …); assay: SPR (Biacore 8K), TTM-002 immobilized on CM5 chip at approximately 6300RU, His-tagged ALPL as analyte; value in the text differs from Table 41
[3] = target: T2, human ALPL expressed on cells (alkaline …); assay: cell-based or functional assay; remark: listed apart in the source
[4] = target: T2, human ALPL expressed on cells (alkaline …); assay: cell-based or functional assay; remark: listed apart in the source
[5] = tested on: brains and tissues (liver quadriceps, and heart); assay: NGS fold enrichment of capsid variants in marmosets; type: in vivo, marmosets (Callithrix jacchus); settings: 2E13 vg/kg IV, 28 days
Source text: To investigate tropism in marmoset monkeys, AAV particles comprising the TTM-001 capsid variant, the TTM-002 capsid variant, an AAV9 capsid variant comprising SEQ ID NO: 966, or an AAV9 control, were intravenously injected into NHPs (n=2, >10 months of age) at a dose of 2E13 vg/kg (8.75E12 vg/mL). After 28-days in life, the brains and tissues (liver quadriceps, and heart) of the NHPs were collected and RNA was extracted. Following RNA recovery and RT-PCR amplification, a systematic NGS enrichment analysis was performed to calculate the fold enrichment ratio relative to the AAV9 wild-type control.

brain = assay: Second cross-species screen, synthetic library passage 3 in BALB/c mice; type: in vivo; settings: for Fold enrichment over AAV9 in BALB/c: third passage (P3)
Experimental: There were approximately 500 variants in this synthetic library. This synthetic library was then injected back into both strains of mice (C57Bl/6 and BALB/c; passage 3). RNA was recovered from the mouse brains, RT-PCR amplification was performed, and fold-enrichment relative to wild-type AAV9 was calculated by NGS analysis, which is provided in Table 11.

[6] = target: T4, library of over 5,500 cDNAs overexpressed in human cells (ALPL); assay: Cell binding array assay for receptor identification; settings: detected with anti-AAV9 antibody
Source text: A cell binding array assay was then used to identify a receptor for the TTM-001 and TTM-002 capsid variants. Briefly, a library of over 5,500 cDNAs was overexpressed in human cells. Cells were contacted with a test ligand, e.g., AAV viral particles comprising a TTM-001 capsid variant or an AAV9 control capsid, which was applied to the array. Binding of the TTM-001 capsid variant or the AAV9 control capsid to the cells was detected using an anti-AAV9 antibody followed by a labeled anti-IgG detection antibody. […] This interacting protein was identified as the GPI-anchored protein, alkaline phosphatase issue-nonspecific isozyme (NM_000478.4, which is incorporated by reference herein) (ALPL). ALPL is part of a family of membrane-bound glycoproteins that hydrolyze monophosphate esters at a high pH (see, e.g., Weiss et al., Isolation and characterization of a cDNA encoding a human liver/bone/kidney-type alkaline phosphatase. Proc. Natl. Acad. Sci., 83:7182-7186 (1986), the contents of which are hereby incorporated by reference in their entirety).

[7] = IgG isotype control 3.125 μg/mL
[8] = P3, average of BALB/c and C57Bl/6

Molecule | Transduction in Hela cells as measured by luciferase assay (RLU) (ALPL on HeLa cells; Anti-ALPL antibody 0 μg/mL) | Transduction in Hela cells as measured by luciferase assay (RLU) (ALPL on HeLa cells; Anti-ALPL antibody 3.125 μg/mL) | Transduction in Hela cells as measured by luciferase assay (RLU) (ALPL on HeLa cells; Anti-ALPL antibody 6.25 μg/mL) | Transduction in Hela cells as measured by luciferase assay (RLU) (ALPL on HeLa cells; Anti-ALPL antibody 12.5 μg/mL) | Transduction in Hela cells as measured by luciferase assay (RLU) (ALPL on HeLa cells; IgG isotype control 0 μg/mL) | Transduction in Hela cells as measured by luciferase assay (RLU) (ALPL on HeLa cells; [7]) | Transduction in Hela cells as measured by luciferase assay (RLU) (ALPL on HeLa cells; IgG isotype control 6.25 μg/mL) | Transduction in Hela cells as measured by luciferase assay (RLU) (ALPL on HeLa cells; IgG isotype control 12.5 μg/mL) | fold change in luciferase activity relative to the pCMV6 control cells (cells transfected with human ALPL protein) [1] [fold] | kon [2] [M⁻¹ s⁻¹] | luciferase activity, fold change relative to pCMV6 transfected HEK 293T cells (ALPL transfected cells) [3] [fold] | luciferase activity, fold change relative to pCMV6 transfected HEK 293T cells (ALPL transfected cells) [4] [fold] | transduction in the presence of anti-ALPL antibody vs isotype control (ALPL on HeLa cells; HeLa, 0-12.5 μg/mL antibody) | expression relative to AAV9 in the heart of marmosets [5] | fold increase in expression relative to AAV9 in the brain of marmosets [5] [fold] | Average fold enrichment over AAV9 (brain; [8]) [fold] | Average fold enrichment over AAV9 (brain; P3, average of BALB/c and C57Bl/6, listed as GHDSPHKSGQNQQT) [fold] | Fold enrichment over AAV9 in BALB/c (brain) [fold] | interaction with ALPL in cell binding array [6] | Average fold enrichment over AAV9 (brain; P3, average of BALB/c and C57Bl/6, listed as GSGSPHSKAQNQQT) [fold]
AAV9: wild-type AAV9 control capsid [reference compound] | 530.67 | 527.33 | 451.67 | 417.33 | 433.33 | 457.67 | 516.33 | 551.33 |  |  |  |  |  |  |  |  |  |  |  | 
B1 |  |  |  |  |  |  |  |  | 24 | 32000 | 44 | 166 |  |  |  |  |  |  |  | 
B2 | 4701 | 5042.67 | 5220 | 5556.67 | 4113.33 | 527.33 | 186.67 | 136 |  |  |  |  | decreased TTM-002 transduction in a dose dependent manner | a significant increase in expression relative to AAV9 | 366.6 | 66.8 | 66.792 | 82.460 |  | 
B3 |  |  |  |  |  |  |  |  |  |  |  |  |  | a significant increase in expression relative to AAV9 | 703.3 | 63.1 |  | 60.312 | a unique interaction with the TTM-001 capsid variant | 63.083
